Experimental data published in publication PMC4368477.

Target: HA head of H1N1 A/Solomon Islands/3/2006 (Influenza A virus, A/Solomon Islands/3/2006 (H1N1))
Test: BLI

| Substance | Kd [nM] | koff [s⁻¹] | kon [M⁻¹ s⁻¹] |
| --- | --- | --- | --- |
| CH67 Fab with light-chain reversions D33H and R31S | 1500 | 0.067 |  |
| CH65 Fab with light-chain reversion R29S | 1210 |  |  |
| CH67 Fab with light-chain reversion R29S | 370 | 0.019 | 52000 |
